Test results: US8242083B2, “Kinase substrates” (PerkinElmer Health Sciences, Inc., priority 2008, dated 2012)

How the values were obtained:
Assay type in all cases: biochemical
[1] = target: KDR (Homo sapiens, UniProt P35968); assay: TR-FRET kinase assay, KDR; conditions: Kinase Concentration 0.25 nM; 50 nM ULight-labeled substrate, 200 micromolar ATP, 2 hours
Procedure: (§1) TR-FRET kinase assays are performed under standardized conditions: various individual kinases are incubated with 50 nM of kinase substrate BRB1 labeled with the TR-FRET acceptor dye ULight (PerkinElmer) and 200 micromolar ATP in 10 μL of kinase assay buffer (50 mM HEPES pH7.5, 10 mM MgCl2, 3 mM MnCl2, 1 mM EGTA, 2 mM DTT and 0.01% Tween-20) for 2 hours at room temperature. Reactions are stopped with EDTA, and anti-phospho-tyrosine antibodies (clone PT66) labeled with the TR-FRET europium chelate donor dye are added to a final concentration of 2 nM in a final volume of 20 μL. The TR-FRET signal emitted at 665 nm is read one hour after the addition of antibodies using a TR-FRET plate reader such as the Envision® Multilabel Plate reader (PerkinElmer). The emitted signal at 665 nm is proportional to the extent of peptide phosphorylation, Control reactions indicative of background are performed excluding ATP from the reaction.
(§2) Assay conditions are identical to those used described for FIG. 1.

[2] = target: PYK2 (Homo sapiens, UniProt Q14289); assay: TR-FRET kinase assay, PYK2; conditions: Kinase Concentration 0.25 nM; 50 nM ULight-labeled substrate, 200 micromolar ATP, 2 hours
Procedure: as §1, §2

[3] = target: FER (Homo sapiens, UniProt P16591); assay: TR-FRET kinase assay, FER; conditions: Kinase Concentration 0.25 nM; 50 nM ULight-labeled substrate, 200 micromolar ATP, 2 hours
Procedure: as §1, §2

[4] = target: T1, ITK (Homo sapiens, UniProt Q08881); assay: TR-FRET kinase assay, ITK; conditions: Kinase Concentration 0.5 nM; 50 nM ULight-labeled substrate, 200 micromolar ATP, 2 hours
T1 sequence (Q08881 1-620): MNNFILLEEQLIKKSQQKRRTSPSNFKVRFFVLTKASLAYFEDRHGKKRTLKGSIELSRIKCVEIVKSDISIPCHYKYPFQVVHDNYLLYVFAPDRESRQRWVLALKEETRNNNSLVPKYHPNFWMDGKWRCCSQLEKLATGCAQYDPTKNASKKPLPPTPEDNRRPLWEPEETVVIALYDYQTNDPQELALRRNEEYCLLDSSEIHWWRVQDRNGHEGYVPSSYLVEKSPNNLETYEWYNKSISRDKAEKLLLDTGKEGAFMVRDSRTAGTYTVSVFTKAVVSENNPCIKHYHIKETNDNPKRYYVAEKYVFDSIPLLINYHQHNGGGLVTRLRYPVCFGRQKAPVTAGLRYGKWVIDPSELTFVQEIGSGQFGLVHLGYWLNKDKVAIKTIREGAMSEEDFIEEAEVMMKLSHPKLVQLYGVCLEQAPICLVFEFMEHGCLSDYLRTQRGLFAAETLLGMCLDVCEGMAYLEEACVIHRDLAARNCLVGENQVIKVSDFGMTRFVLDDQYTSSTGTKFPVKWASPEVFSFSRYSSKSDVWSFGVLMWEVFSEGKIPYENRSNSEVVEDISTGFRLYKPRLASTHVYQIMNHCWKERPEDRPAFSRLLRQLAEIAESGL
Procedure: as §1, §2

[5] = target: T2, EphB1 (Homo sapiens, UniProt P54762); assay: TR-FRET kinase assay, EphB1; conditions: Kinase Concentration 0.5 nM; 50 nM ULight-labeled substrate, 200 micromolar ATP, 2 hours
T2 sequence (P54762 18-984): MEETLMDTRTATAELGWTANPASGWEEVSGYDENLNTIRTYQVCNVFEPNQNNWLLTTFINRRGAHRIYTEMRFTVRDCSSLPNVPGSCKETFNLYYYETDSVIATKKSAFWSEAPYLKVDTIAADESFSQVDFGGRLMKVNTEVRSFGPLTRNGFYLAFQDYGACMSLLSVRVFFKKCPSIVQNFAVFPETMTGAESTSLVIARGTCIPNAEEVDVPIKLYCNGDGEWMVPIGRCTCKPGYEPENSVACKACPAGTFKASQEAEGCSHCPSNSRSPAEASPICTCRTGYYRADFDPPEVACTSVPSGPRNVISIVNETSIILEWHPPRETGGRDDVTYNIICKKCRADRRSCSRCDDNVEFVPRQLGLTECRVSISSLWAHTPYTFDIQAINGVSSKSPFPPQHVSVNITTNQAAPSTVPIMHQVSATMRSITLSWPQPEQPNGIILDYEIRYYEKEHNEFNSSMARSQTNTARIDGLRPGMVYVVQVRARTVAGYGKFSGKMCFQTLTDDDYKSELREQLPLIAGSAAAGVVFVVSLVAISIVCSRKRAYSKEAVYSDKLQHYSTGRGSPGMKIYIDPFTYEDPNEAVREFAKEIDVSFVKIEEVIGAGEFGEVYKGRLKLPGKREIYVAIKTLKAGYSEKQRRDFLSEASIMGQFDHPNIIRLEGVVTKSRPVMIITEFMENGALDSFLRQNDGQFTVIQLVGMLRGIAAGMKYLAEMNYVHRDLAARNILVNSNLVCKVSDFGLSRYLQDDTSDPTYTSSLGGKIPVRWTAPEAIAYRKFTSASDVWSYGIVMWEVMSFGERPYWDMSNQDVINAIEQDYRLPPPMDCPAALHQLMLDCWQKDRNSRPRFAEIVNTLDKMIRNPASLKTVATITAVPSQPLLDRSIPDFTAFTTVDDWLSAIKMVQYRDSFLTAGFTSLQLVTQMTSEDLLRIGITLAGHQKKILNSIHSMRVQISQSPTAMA
Procedure: as §1, §2

Chain of FER (P16591 whole entry, species assumed): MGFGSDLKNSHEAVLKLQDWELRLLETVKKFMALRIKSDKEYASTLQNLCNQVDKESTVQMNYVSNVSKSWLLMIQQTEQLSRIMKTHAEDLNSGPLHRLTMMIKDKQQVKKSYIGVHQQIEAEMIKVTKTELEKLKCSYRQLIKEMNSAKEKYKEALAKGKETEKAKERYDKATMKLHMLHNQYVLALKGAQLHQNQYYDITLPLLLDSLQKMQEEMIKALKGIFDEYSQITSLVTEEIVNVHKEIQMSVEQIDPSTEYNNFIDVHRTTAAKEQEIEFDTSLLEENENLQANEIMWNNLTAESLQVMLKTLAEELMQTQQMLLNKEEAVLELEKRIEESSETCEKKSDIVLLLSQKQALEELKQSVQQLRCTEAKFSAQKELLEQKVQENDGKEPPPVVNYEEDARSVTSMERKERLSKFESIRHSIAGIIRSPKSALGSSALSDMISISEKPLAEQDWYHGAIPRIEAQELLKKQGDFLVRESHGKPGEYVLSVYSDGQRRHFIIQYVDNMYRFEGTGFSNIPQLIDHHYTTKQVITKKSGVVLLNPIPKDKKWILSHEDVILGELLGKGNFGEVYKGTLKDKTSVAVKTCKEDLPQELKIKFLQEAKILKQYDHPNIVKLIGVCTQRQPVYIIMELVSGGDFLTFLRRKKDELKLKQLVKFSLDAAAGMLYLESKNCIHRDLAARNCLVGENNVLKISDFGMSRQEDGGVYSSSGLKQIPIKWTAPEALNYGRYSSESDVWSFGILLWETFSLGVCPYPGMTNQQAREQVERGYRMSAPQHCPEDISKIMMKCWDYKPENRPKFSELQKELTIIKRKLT
Chain of KDR (P35968 20-1356, species assumed): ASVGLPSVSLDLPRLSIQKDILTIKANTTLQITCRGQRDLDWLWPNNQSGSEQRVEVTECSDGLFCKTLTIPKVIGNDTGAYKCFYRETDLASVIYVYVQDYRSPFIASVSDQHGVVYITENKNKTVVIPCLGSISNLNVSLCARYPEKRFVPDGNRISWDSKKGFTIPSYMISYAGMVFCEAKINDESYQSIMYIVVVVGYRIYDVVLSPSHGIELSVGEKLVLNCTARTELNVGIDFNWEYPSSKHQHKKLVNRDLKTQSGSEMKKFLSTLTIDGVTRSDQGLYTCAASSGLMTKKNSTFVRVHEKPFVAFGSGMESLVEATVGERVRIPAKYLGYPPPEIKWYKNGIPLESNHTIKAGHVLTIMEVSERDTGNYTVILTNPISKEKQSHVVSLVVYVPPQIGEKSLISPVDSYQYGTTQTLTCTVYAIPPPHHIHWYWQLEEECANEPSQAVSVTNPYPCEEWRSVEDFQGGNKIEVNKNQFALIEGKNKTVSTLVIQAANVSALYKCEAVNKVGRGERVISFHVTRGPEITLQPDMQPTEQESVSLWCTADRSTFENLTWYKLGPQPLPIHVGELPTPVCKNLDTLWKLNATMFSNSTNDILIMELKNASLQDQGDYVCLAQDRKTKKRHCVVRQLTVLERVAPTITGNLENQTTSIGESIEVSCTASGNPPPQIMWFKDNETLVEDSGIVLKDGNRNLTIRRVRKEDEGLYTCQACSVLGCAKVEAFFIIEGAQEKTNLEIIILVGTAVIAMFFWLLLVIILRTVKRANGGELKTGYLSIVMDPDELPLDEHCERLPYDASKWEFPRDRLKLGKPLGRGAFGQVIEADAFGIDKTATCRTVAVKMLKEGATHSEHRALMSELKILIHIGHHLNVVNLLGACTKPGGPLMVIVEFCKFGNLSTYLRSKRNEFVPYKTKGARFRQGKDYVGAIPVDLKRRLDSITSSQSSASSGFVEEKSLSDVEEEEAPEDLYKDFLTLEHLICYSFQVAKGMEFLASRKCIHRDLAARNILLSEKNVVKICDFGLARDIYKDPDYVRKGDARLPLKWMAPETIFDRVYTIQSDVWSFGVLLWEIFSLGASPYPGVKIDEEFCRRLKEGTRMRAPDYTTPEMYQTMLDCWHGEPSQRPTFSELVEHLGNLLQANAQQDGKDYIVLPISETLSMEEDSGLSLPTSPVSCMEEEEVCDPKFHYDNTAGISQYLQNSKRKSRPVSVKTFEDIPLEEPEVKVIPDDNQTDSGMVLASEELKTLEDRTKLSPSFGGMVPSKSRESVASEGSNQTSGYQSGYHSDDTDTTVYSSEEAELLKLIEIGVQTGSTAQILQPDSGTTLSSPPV
Chain of PYK2 (Q14289 whole entry, species assumed): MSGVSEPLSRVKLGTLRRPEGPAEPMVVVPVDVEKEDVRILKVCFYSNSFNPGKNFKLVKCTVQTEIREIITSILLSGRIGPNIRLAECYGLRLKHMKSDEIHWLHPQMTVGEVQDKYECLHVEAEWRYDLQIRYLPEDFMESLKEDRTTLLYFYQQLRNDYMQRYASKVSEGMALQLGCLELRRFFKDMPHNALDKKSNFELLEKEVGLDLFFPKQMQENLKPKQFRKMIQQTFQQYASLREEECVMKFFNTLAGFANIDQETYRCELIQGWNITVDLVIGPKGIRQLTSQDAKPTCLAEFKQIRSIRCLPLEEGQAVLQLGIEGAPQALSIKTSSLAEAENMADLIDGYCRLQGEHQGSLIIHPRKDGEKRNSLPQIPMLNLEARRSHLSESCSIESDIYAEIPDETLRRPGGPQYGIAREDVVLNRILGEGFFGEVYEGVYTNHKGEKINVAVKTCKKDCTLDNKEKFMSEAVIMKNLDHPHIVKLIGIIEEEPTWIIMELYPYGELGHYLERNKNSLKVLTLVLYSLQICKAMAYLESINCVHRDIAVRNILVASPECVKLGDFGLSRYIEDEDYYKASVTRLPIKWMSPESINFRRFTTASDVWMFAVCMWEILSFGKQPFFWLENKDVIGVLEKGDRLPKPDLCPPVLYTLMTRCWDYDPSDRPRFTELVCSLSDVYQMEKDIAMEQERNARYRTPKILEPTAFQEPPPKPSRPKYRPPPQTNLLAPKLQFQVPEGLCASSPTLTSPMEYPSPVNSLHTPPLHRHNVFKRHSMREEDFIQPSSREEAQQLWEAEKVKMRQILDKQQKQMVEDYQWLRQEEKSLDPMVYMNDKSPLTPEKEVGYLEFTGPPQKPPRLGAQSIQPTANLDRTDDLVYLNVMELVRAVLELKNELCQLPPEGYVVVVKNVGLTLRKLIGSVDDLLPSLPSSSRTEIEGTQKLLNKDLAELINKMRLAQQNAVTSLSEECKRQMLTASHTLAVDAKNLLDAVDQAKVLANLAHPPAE

C AYE AYE AYE K EYA EYA EYA K AYA EYE R (CAYEAYEAYEKEYAEYAEYAKAYAEYER; tyrosine kinase substrate peptide) [BRB1]
Signal to Noise ratio with BRB1 Peptide [1]: 16.9
Signal to Noise ratio with BRB1 Peptide [2]: 2.9
Signal to Noise ratio with BRB1 Peptide [3]: 31.0
Signal to Noise ratio with BRB1 Peptide [4]: 8.4
Signal to Noise ratio with BRB1 Peptide [5]: 29.9
